Measurements taken from patent US20250027090, “MIRROR-IMAGE SELECTION OF L-NUCLEIC ACID APTAMERS” (Tsinghua University, published 2025).

Molecular target: thrombin (native human beta-thrombin) (Homo sapiens, UniProt P00734;P00734 P00734:328-363,P00734:364-622)
Test: ITC; physiological buffer pH 7.4, 25 C

B1: D-6 aptamer (ssDNA)
DNA: CGGATCCAGTTACGGACTGAACAGAAGGGTGGTGTGGTTGGACTGTTCATTCAGTAAGCTTCGG
  Kd: 27 nM
